# Measured values reported in the supplement of paper PMC10724198.
# ± gives the standard deviation of the averaged measurements.
# Test system: Saccharomyces cerevisiae
# Experiment: protein stability index of tFT-peptide fusion (C-terminal peptide) (PSI (0-1 scale)); higher = more stable (slower turnover)
# Conditions: genetic background: wild type; temperature: 30 C
# 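Note: PSI is a weighted mean of sequencing reads over stability bins, variants kept only with over 10 reads, mCherry proximal and sfGFP distal, peptide attached via GGGS linker.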
row,Sequence,protein stability index
1,WQMRNGTSRSSL,0.631 ± 0.012
2,WREAVMKRQGGG,0.677 ± 0.014
3,WREGKTCTRKGG,0.57 ± 0.047
4,WRGQRGRIAGPR,0.6694 ± 0.0062
5,WRLGEREGWKAG,0.615 ± 0.0077
6,WRSGGGGGPAGV,0.6762 ± 0.0032
7,WRTRRVVFPNWH,0.666 ± 0.008
8,WSFQTRSVNICI,0.633 ± 0.021
9,WSLSSHCMLMVE,0.5394 ± 0.0051
10,WSPILEHAISDL,0.731 ± 0.017
11,WSPPRAAPRPHP,0.642 ± 0.045
12,WSRSEIGDGSAG,0.742 ± 0.023
13,WSSGDVRRAKEW,0.719 ± 0.078
14,WSVAVVWDALFG,0.699 ± 0.04
15,WTFVRTPERSEI,0.719 ± 0.0089
16,WTIVEALPRGVV,0.679 ± 0.046
17,WTTWAYFSDPTS,0.621 ± 0.021
18,WVGCALEQGGAV,0.71 ± 0.0019
19,WVGPGGAVENKV,0.7013 ± 0.0032
20,WVKTLEKEDHVI,0.759 ± 0.21
21,WVPLGVVGWFGG,0.659 ± 0.038
22,WVRDDEYTLIFL,0.712 ± 0.035
23,WVTGASRLVGRE,0.766 ± 0.13
24,WVWAIDYEGLLW,0.699 ± 0.054
25,WVWGVLGAVWFG,0.632 ± 0.0091
26,WYTPDCLHCGPA,0.688 ± 0.013

row,Sequence,protein stability index
1,YAAGGPLLLCNQ,0.66 ± 0.021
2,YAGGLWEGYRHW,0.636 ± 0.063
3,YCALVSVGVVGG,0.542 ± 0.0036
4,YCFRFGLLIFGD,0.548 ± 0.01
5,YCGGRGGGWEIG,0.682 ± 0.027
6,YCNLSFKINREW,0.696 ± 0.12
7,YCRQVSYERPTK,0.743 ± 0.077
8,YEACQTGASICR,0.7125 ± 0.0013
9,YEGARAPAGGEK,0.689 ± 0.034
10,YERKGRQVGGRT,0.592 ± 0.048
11,YFAASFMSSSGI,0.76 ± 0.078
12,YFALPPSAHRHQ,0.693 ± 0.059
13,YFPSSTLPPPVP,0.675 ± 0.029
14,YFTARLLFFGYI,0.725 ± 0.1
15,YGGFLHALAMGG,0.677 ± 0.0014
16,YGLAGFLWGCGE,0.799 ± 0.051
17,YGRRPGSRGDEH,0.699 ± 0.025
18,YGSRWRPYLGFR,0.669 ± 0.028
19,YGTLCPLNGCGI,0.633 ± 0.068
20,YGWGVWFIGLGG,0.794 ± 0.095
21,YIDLVEGECNKK,0.685 ± 0.046
22,YILSSFWTEVDS,0.703 ± 0.093
23,YKTCKEKKITNR,0.704 ± 0.014
24,YLCRLHLGGLSS,0.602 ± 0.0075
25,YLEDRGTSGSVQ,0.676 ± 0.054
26,YLSRIFPSLLFL,0.6 ± 0.03

row,Sequence,protein stability index
1,YLSSTVVRSMLF,0.644 ± 0.014
2,YLVHEIGDMTYM,0.739 ± 0.079
3,YLVSYLSLFLSF,0.504 ± 0.029
4,YNGNSHQTHRHP,0.74 ± 0.022
5,YNGVGGLKPEPC,0.658 ± 0.049
6,YPKGKHSQDSHV,0.656 ± 0.039
7,YPLLPSERDVKA,0.728 ± 0.023
8,YPPPPPSPPSTV,0.722 ± 0.027
9,YPRNPSLSTSAS,0.63 ± 0.16
10,YPRPLSLSFLSL,0.73 ± 0.048
11,YPVLFLRSAPCK,0.584 ± 0.031
12,YQCESDLFLVGV,0.642 ± 0.041
13,YQCGRRVGSACD,0.645 ± 0.023
14,YQCVQNNKGRSR,0.67 ± 0.024
15,YQLRRGDSSLTE,0.677 ± 0.085
16,YRDTVYKVRYSN,0.537 ± 0.015
17,YRERSTIKITGN,0.671 ± 0.054
18,YRGNLVTDGYGA,0.685 ± 0.019
19,YRPFQAPPLVLF,0.6379 ± 0.0026
20,YRPGGDRMTGFV,0.713 ± 0.065
21,YRRGLGEYRTRS,0.688 ± 0.059
22,YRSEEFSGESGW,0.769 ± 0.11
23,YRTPRSRHLDSP,0.6938 ± 0.0068
24,YRVGCCCFFALT,0.618 ± 0.016
25,YRVSWSFLGCFQ,0.62 ± 0.071
26,YSDFLICGIGSY,0.775 ± 0.037

row,Sequence,protein stability index
1,YSDHFFQICGSF,0.726 ± 0.0065
2,YSGNPGVRGFHG,0.69 ± 0.073
3,YSGSKGVWTRWS,0.687 ± 0.02
4,YSGSYIEPREIR,0.626 ± 0.087
5,YSSGILPLEMIA,0.606 ± 0.0092
6,YSTFPPRIPRPP,0.524 ± 0.011
7,YTESQVCLLSAY,0.509 ± 0.0088
8,YTPALFLPVRPA,0.715 ± 0.06
9,YTQVSSRGINID,0.734 ± 0.029
10,YTRILRKKLINK,0.711 ± 0.11
11,YTSRLGRGILHV,0.671 ± 0.031
12,YVEGSWSSPRCR,0.675 ± 0.12
13,YVKEEEKKKESK,0.681 ± 0.079
14,YVRLSTLCGSAY,0.58 ± 0.036
15,YVSNKMHGSLLS,0.691 ± 0.03
16,YVTITLGLASPT,0.666 ± 0.026
17,YVVPLGIPPFKD,0.6591 ± 0.00099
18,YVWCINSARLVG,0.587 ± 0.01
19,YWSRIFEAATIA,0.5436 ± 0.0024
20,YWSTNGRCLMVL,0.581 ± 0.017
21,YYAMGFEKSISS,0.682 ± 0.031
22,YYDWPGQRFSEE,0.67 ± 0.035
23,YYRKATFSPMVQ,0.684 ± 0.072
